Results on six molecules are retold here after US20230174669A1 (ALIADA THERAPEUTICS, published 2023).

First the molecules themselves.
B1: BBBB1067 (bispecific antibody)
heavy 1: EVQLVESGGGLVKPGGSLRLSCAASGFTFSSYAMSWVRQAPGKGLEWVASISKGGNTYYPDSVKGRFTISRDNAKNSLYLQMNSLRAEDTAVYYCARGWGDYGWFAYWGQVTLVTVSSASTKGPSVFPLAPSSKSTSGGTAALGCLVKDYFPEPVTVSWNSGALTSGVHTFPAVLQSSGLYSLSSVVTVPSSSLGTQTYICNVNHKPSNTKVDKKVEPKSCDKTHTCPPCPAPEAAGGPSVFLFPPKPKDTLYITREPEVTCVVVSVSHEDPEVKFNWYVDGVEVHNAKTKPREEQYNSTYRVVSVLTVLHQDWLNGKEYKCKVSNKALPAPIEKTISKAKGQPREPQVYVYPPSREEMTKNQVSLTCLVKGFYPSDIAVEWESNGQPENNYKTTPPVLDSDGSFALVSKLTVDKSRWQQGNVFSCSVMHEALHNHYTQKSLSLSPGGGAGGAQVQLVESGGGVVQPGRSLRLSCAASGFTFSSYGMHWVRQAPGKGLEWVAIISYDGSNKHYADSVKGRFTISRDNSKNTLYLQMNSLRAEDTAVYYCARAPSSFYFDYWGQGTLVTVSSGTEGKSSGSGSESKSTDIVMTQSPDSLAVSLGERATINCKSSQSVLFSSNNKNYLAWYQQKPGQPPKLLIYWASTRESGVPDRFSGSGSGTDFTLTISSLQAEDVAVYYCQQYYSTPPTFGQGTKVVIK
light: DIQMTQSPSSLSASVGDRVTITCKASQDINRYLNWFQQKPGKAPKTLIYRANRLLDGVPSRFSGSGSGTDFTLTISSLQPEDFATYYCQQYDEFPLTFGQGTKLEIKRTVAAPSVFIFPPSDEQLKSGTASVVCLLNNFYPREAKVQWKVDNALQSGNSQESVTEQDSKDSTYSLSSTLTLSKADYEKHKVYACEVTHQGLSSPVTKSFNRGEC
heavy 2: EVQLVESGGGLVKPGGSLRLSCAASGFTFSSYAMSWVRQAPGKGLEWVASISKGGNTYYPDSVKGRFTISRDNAKNSLYLQMNSLRAEDTAVYYCARGWGDYGWFAYWGQVTLVTVSSASTKGPSVFPLAPSSKSTSGGTAALGCLVKDYFPEPVTVSWNSGALTSGVHTFPAVLQSSGLYSLSSVVTVPSSSLGTQTYICNVNHKPSNTKVDKKVEPKSCDKTHTCPPCPAPEAAGGPSVFLFPPKPKDTLYITREPEVTCVVVSVSHEDPEVKFNWYVDGVEVHNAKTKPREEQYNSTYRVVSVLTVLHQDWLNGKEYKCKVSNKALPAPIEKTISKAKGQPREPQVYVLPPSREEMTKNQVSLLCLVKGFYPSDIAVEWESNGQPENNYLTWPPVLDSDGSFFLYSKLTVDKSRWQQGNVFSCSVMHEALHNHYTQKSLSLSPG
notes: also called tripod mAb Anti-Tau IgG1 AAS YTE with C98hc4
B2: BBBB1061 (bispecific antibody, human IgG1, kappa, L234A L235A)
heavy 1: EVQLVESGGGLVKPGGSLRLSCAASGFTFSSYAMSWVRQAPGKGLEWVASISKGGNTYYPDSVKGRFTISRDNAKNSLYLQMNSLRAEDTAVYYCARGWGDYGWFAYWGQVTLVTVSSASTKGPSVFPLAPSSKSTSGGTAALGCLVKDYFPEPVTVSWNSGALTSGVHTFPAVLQSSGLYSLSSVVTVPSSSLGTQTYICNVNHKPSNTKVDKKVEPKSCDKTHTCPPCPAPEAAGGPSVFLFPPKPKDTLYITREPEVTCVVVSVSHEDPEVKFNWYVDGVEVHNAKTKPREEQYNSTYRVVSVLTVLHQDWLNGKEYKCKVSNKALPAPIEKTISKAKGQPREPQVYVYPPSREEMTKNQVSLTCLVKGFYPSDIAVEWESNGQPENNYKTTPPVLDSDGSFALVSKLTVDKSRWQQGNVFSCSVMHEALHNHYTQKSLSLSPGGGAGGAQVQLVESGGGLVQAGGSLRLSCAASGRAFSSNGMGWFRQAPGKEREFVATISCSGTSTYYADSVKGRFTISRDNAKNTVYLQMNSLKPEDTAVYFCAADTRHCMGYTKDEGYAYWGQGTQVTVSS
light: B1 light
heavy 2: B1 heavy 2
notes: also called tripod mAb Anti-Tau IgG1 AAS YTE with C98hc2
B3: BBBB1070 (bispecific antibody, human IgG1, kappa, L234A L235A)
heavy 1: EVQLVESGGGLVKPGGSLRLSCAASGFTFSSYAMSWVRQAPGKGLEWVASISKGGNTYYPDSVKGRFTISRDNAKNSLYLQMNSLRAEDTAVYYCARGWGDYGWFAYWGQVTLVTVSSASTKGPSVFPLAPSSKSTSGGTAALGCLVKDYFPEPVTVSWNSGALTSGVHTFPAVLQSSGLYSLSSVVTVPSSSLGTQTYICNVNHKPSNTKVDKKVEPKSCDKTHTCPPCPAPEAAGGPSVFLFPPKPKDTLYITREPEVTCVVVSVSHEDPEVKFNWYVDGVEVHNAKTKPREEQYNSTYRVVSVLTVLHQDWLNGKEYKCKVSNKALPAPIEKTISKAKGQPREPQVYVYPPSREEMTKNQVSLTCLVKGFYPSDIAVEWESNGQPENNYKTTPPVLDSDGSFALVSKLTVDKSRWQQGNVFSCSVMHEALHNHYTQKSLSLSPGGGAGGAQVQLQESGPGLVKPSETLSLTCTVSGGSISSSYWSWIRQPPGKGLEWIGYIYNSGSTNYNPSLKSRVTISVDTSKNQFSLKLSSVTAADTAVYYCARETYYFDYWGQGTLVTVSSGTEGKSSGSGSESKSTDIVMTQSQKFMSTSVGDRVSVTCKASQNVGINVAWYQKKPGQPPKALIYSAAYRYSGVPDRFTGSGSGTDFTLTISNVQSEDLAEYFCQQYNSYPLTFGSGTKLEIK
light: B1 light
heavy 2: B1 heavy 2
notes: also called tripod mAb Anti-Tau IgG1 AAS YTE with C98hc5
B4: BBBB1065 (bispecific antibody)
heavy 1: B1 heavy 1 with A235L, A236L, Y253M, T255S, E257T, S266D
light: B1 light
heavy 2: B1 heavy 2 with A235L, A236L, Y253M, T255S, E257T, S266D
notes: also called tripod mAb Anti-Tau IgG1 with C98hc4
B5: BBBB1202 (bispecific antibody)
heavy 1: B1 heavy 1 with S555H
light: B1 light
heavy 2: B1 heavy 2
B6: BBBB1201 (bispecific antibody)
heavy 1: B1 heavy 1 with S555A
light: B1 light
heavy 2: B1 heavy 2

Numbering of substitutions follows the chain as printed.

The first test concerns the target T1, human CD98hc (human, UniProt P08195 105-529).
T1 construct: Soluble protein flowed over captured tripod mAbs in SPR; also called huCD98hc; human CD98 heavy chain
T1 sequence: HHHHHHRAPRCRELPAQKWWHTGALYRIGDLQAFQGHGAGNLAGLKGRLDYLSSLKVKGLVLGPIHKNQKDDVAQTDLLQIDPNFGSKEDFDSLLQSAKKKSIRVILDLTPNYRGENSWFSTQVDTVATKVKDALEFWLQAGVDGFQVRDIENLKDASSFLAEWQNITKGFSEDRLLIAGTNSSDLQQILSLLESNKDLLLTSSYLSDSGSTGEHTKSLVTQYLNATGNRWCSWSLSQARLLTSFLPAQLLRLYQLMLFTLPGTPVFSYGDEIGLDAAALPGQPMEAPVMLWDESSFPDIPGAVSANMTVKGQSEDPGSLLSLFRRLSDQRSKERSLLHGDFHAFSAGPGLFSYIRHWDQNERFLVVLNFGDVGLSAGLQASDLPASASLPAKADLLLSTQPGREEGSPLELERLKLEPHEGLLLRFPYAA
Briefly: SPR ProteOn, anti-Tau tripod mAb captured by anti-Fc, huCD98hc flowed.
For B1, the Kd (commonly the free concentration of one partner at which half of the binding sites on the other are occupied at equilibrium, for simple one-to-one binding) turned out to be 3.15 nM; the koff (as a rule, a measure of how fast the partners let go of each other) came to 0.00138 s⁻¹; the kon (in general, the rate constant with which the complex forms) was found to be 439000 M⁻¹ s⁻¹.

With B2, binding was characterised by a dissociation constant (Kd) of 1.46 nM, the koff is 0.00135 s⁻¹ and the kon is 935000 M⁻¹ s⁻¹.

Take B3: binding was characterised by a dissociation constant (Kd) of 118 nM, the koff was found to be 0.00648 s⁻¹ and the kon stood at 55700 M⁻¹ s⁻¹.

B4 yielded a Kd of 2.96 nM, a koff of 0.00139 s⁻¹ and a kon of 470000 M⁻¹ s⁻¹.

The target in a further test is T1, human CD98hc. Briefly: SPR ProteOn, mAb captured by anti-Fc, huCD98hc flowed, 1:1 model.
Procedure: An Fc capture surface was generated by coupling anti-IgG Fc mAb (Jackson ImmunoResearch) to a GLC chip (BioRad) using the amine-coupling chemistry (BioRad).
The chip surface was regenerated with two 18 second pulses of 100 mM H3PO4 (Sigma) at 100 μL/min. The collected data were processed using ProteOn Manager software V3.1.0.6 (BioRad). First, the data was corrected for background using inter-spots. Then, double reference subtraction of the data was performed by using the buffer injection for analyte injections. The kinetic analysis of the data was performed using a Langmuir 1:1 binding model.
As for B5, binding was put at a Kd of 52.9 nM, the koff is 0.00882 s⁻¹ and the kon was 167000 M⁻¹ s⁻¹.

As for B6, binding was characterised by a dissociation constant (Kd) of 16.9 nM, the koff was determined as 0.006 s⁻¹ and the kon was 357000 M⁻¹ s⁻¹.
